Measured values as given in patent US20060051359A1.

Biological target: 8H9 antigen (human) (UniProt Q5ZPR3)
Assay: cell-based or functional assay

Sequence of UniProt Q5ZPR3 (Q5ZPR3 29-534): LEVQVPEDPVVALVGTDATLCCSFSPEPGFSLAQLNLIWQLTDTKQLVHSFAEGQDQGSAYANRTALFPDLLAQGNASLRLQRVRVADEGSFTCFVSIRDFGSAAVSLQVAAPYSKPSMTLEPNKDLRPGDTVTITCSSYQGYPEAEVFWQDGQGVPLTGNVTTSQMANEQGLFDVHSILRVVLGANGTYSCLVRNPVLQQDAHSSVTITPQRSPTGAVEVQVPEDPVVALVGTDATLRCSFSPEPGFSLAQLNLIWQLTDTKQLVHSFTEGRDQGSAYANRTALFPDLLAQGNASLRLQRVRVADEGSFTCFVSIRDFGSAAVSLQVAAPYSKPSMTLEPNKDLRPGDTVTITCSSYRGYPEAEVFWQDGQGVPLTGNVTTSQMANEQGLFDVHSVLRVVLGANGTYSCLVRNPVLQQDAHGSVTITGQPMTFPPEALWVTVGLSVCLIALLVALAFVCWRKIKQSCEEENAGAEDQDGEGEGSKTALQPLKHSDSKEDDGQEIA

8H9(scFv)-PE38
IC50 of 8H9(Fv)-PE38 (ng/ml) on BT-474 cells: 20 ng/mL | IC50 of 8H9(Fv)-PE38 (ng/ml) on CRL1427 (MG63) cells: 50 ng/mL | IC50 of 8H9(Fv)-PE38 (ng/ml) on LAN-1 cells: 12.5 ng/mL | IC50 of 8H9(Fv)-PE38 (ng/ml) on MCF-7 cells: 5 ng/mL | IC50 of 8H9(Fv)-PE38 (ng/ml) on NMB-7 cells: 9 ng/mL | IC50 of 8H9(Fv)-PE38 (ng/ml) on OHS-M1 cells: 20 ng/mL | IC50 of 8H9(Fv)-PE38 (ng/ml) on SK-N-BE(2) cells: 90 ng/mL | IC50 of 8H9(Fv)-PE38 (ng/ml) on U2OS cells: 30 ng/mL | IC50 of 8H9(Fv)-PE38 (ng/ml) on ZR-75-1 cells: 35 ng/mL
